From patent US20080045451A1, “Novel thymidylate synthase mutants” (priority 2000, published 2008)
Where a chain is given by its changes, count along the chain named. Numbers in names are those of the source. Where “and” joins values, the source holds several entries; their conditions need not be identical. Identical values can stand only once. Entries after “also recorded” stand apart in the source; their conditions may differ.

Tests used:
E. coli χ2913 cells = test: Survival of TS-deficient E. coli χ2913 expressing wild type or mutant TS on M9 plates containing 5-FdUR; format: cell-based; conditions: for 5-FdUR concentration at which colonies formed on minimal plates: side-by-side comparison, FIG. 3A, 200 nM clones did not grow at 250 nM; for resistance to 5-FdUR (survival curves), in words: FIG. 3A-3C, single mutants made by site-directed mutagenesis
Procedure: The resistance of each of the 41 mutants to 5-FdUR is expressed as fold enhancement in survival relative to wild type determined in parallel assays. All assays were carried out in duplicate at varying concentration of 5-FdUR and most comparison were repeated in two or more separate experiments. […] Only those experiments in which the survival of the wild type was lower than 1% were included in this tabulation. The percent survival of the wild type at the indicated concentrations of 5-FdUR is as follows: (a) 0.4% in 0.4 nM; (b) <0.1% in a 150 nM; (c) 0.1% at 150 nM; (d) 0 at 300 nM; (e) 0.5% at 150 nM; (f) 0 at 200 nM; (g) 0.95 at 150 nM.
E. coli χ2913 cells harboring plasmids with random substitutions encoding different amino acids, the TS library, were grown overnight at 37° C. in 2×YT medium containing 50 mg/ml of carbenicillin and 50 mg/ml thymidine. Cultures were diluted 1:100 in the same medium and grown at 37° C. until the OD600 reached 0.6 to 0.8. Aliquots (1 ml) of the exponentially growing cells were pelleted and resuspended in M9 salts and plated on three different media. On 1×YT containing […] of carbenicillin and supplemented with 50 mg/ml of thymidine, essentially all cells harboring the plasmid DNA should be recovered. On M9 plates containing carbenicillin, only cells expressing active TS proteins should grow because the medium lacks thymidine. Drug resistant clones were selected on M9 plates containing carbenicillin and increasing concentrations of 5FdUR essentially as previously described (Landis, D. M., Loeb, L. A., 1998, J. Biol. Chem. 273:25809-25817)
To isolate mutants that render E. coli χ2913 resistant to 5-FdUR, the TS library was plated on M9 minimal medium containing 200 or 300 nM 5-FdUR. […] Resistant colonies were selected and plasmid DNA was isolated and re-transformed into fresh χ2913 cells to confirm that the plasmid was the source of the drug-resistant phenotype.
To obtain a profile of amino acid replacements conferring resistance, the remaining, 3′-proximal third of the cDNA from each of the 33 mutants was sequenced. […] Resistance is recorded as percent survival relative to percent survival of host cells harboring wild type TS at 150 nM 5-FdUR of greater. Expression of TS in 10 of the resistant mutants was analyzed by Western blotting with antiserum directed against human TS. The level of expression of wild type TS was more than 2-fold greater than that of any of the mutants, estimated by visual inspection of the gel (data not shown). The mutant proteins may be more labile than the wild type or more susceptible to proteolytic degradation.

bacterial strain χ2913 = test: Testing the 5-FU-resistance of TS-mutants: colonies of transfected χ2913 on 5-FdUR selection plates; format: cell-based; conditions: 200 nM 5-FdUR, FIG. 5
Procedure: The bacterial strain χ2913 was transfected with expressions vectors of the TS-mutants and defined amounts of bacteria in the exponential growth phase were plated on selection plates. The selection plates contained increasing concentrations of 5-fluorodeoxyuridine (0, 75, 150, 200, respectively 300 nM). 5-fluorodeoxyuridine (5-FdUR) is a very effective metabolite, which is generated from 5-fluorouracil in the cell. The selection plates were made of minimal medium, which contained carbenicilline and tetracycline. […] After 36 to 48 hours the number of growing colonies was determined. For this the number of colonies of bacteria, which were transfected with wild type thymidylate synthase was set as 100% and all other numbers of colonies were correspondingly converted to % values.

[1] = Inhibition constants (Ki) for 5-FdUMP from Dixon plot; format: biochemical, human; conditions: 25° C.
Procedure: TS activity was monitored spectrophotometrically by the increase in absorbance at 340 nm that occurs concomitant with the production of H2 folate (Δε=6400 M^−1 cm^−1). The reaction buffer contained 50 mM TES (pH 7.4), 25 mM NaCl, 6.5 mM formaldehyde, 1 mM EDTA and 150 μM 2-mercaptoethanol. When the concentration of dUMP was varied, a high concentration of (6R)—CH2H4 folate was added (3001200 mM of a racemic mixture); when the concentration of (6R)—CH2H4-folate was varied, the concentration of dUMP was 400 μM. Purified wild type or mutant TS protein was added to initiate the reaction at 25° C. Initial velocity measurements were obtained with a Perkin Elmer Lambda Bio 20 UV/VIS spectrophotometer. Steady-state kinetic parameters were derived by a nonlinear least squares fit of the data to the Michaelis Menten equation with KaleidaGraph 3.0 software (Abelbeck Software, Reading Pa.). […] Two dUMP concentrations (30 μM and 300 μM) were used, and FdUMP concentrations were varied. To initiate reactions, CH2H4-folate was added to yield a final concentration of 300 μM of the active isomer.

[2] = Steady-state kinetic analysis of purified His-tagged TS proteins; format: biochemical, human; conditions: 25° C., dUMP 400 μM
Text: To subclone mutant TS fragments into the pH is vector (a modified pUC12 vector provided by A. Hizi), the TS cDNA was PCR-amplified by using HK-MUT5′ and TSXho3′ (5′-[…]-3′, SEQ ID NO: 4). After digestion with NdeI and XhoI, the amplified fragments were ligated into the NdeISalI digested pH is vector. The reconstructed plasmids were verified by both restriction analysis and DNA sequencing. Wild type and mutant TS proteins, as N-terminal hexahistidine fusions, were then purified by metal chelation chromatography on Ni^2+ affinity resin (His Bind resin and buffer kit, Novagen), as previously described, with minor modifications (see Landis, cited above). An overnight culture of χ2913 cells expressing the His-TS fusion protein was diluted 1:100 into 250 ml of 2×YT medium containing carbenicillin and thymidine. […] The concentration of purified TS was determined by using the Bradford assay.
TS activity was monitored spectrophotometrically by the increase in absorbance at 340 nm that occurs concomitant with the production of H2 folate (Δε=6400 M^−1 cm^−1). […] Steady-state kinetic parameters were derived by a nonlinear least squares fit of the data to the Michaelis Menten equation with KaleidaGraph 3.0 software (Abelbeck Software, Reading Pa.). […]

B1: T51S;G52S (protein)
chain: MPVAGSELPRRPLPPAAQERDAEPRPPHGELQYLGQIQHILRCGVRKDDRSSTGTLSVFGMQARYSLRDEFPLLTTKRVFWKGVLEELLWFIKGSTNAKELSSKGVKIWDANGSRDFLDSLGFSTREEGDLGPVYGFQWRHFGAEYRDMESDYSGQGVDQLQRVIDTIKTNPDDRRIIMCAWNPRDLPLMALPPCHALCQFYVVNSELSCQLYQRSGDMGLGVPFNIASYALLTYMIAHITGLKPGDFIHTLGDAHIYLNHIEPLKIQLQREPRPFPKLRILRKVEKIDDFKAEDFQIEGYNPHPTIKMEMAV
5-FdUR concentration at which colonies formed on minimal plates (E. coli χ2913 cells): 200 nM

B2: wild type TS: wild type human thymidylate synthase (SEQ ID NO: 7) (protein, listed as Homo sapiens)
chain: B1 chain with S51T, S52G
percent survival of the wild type (E. coli χ2913 cells; 0.4 nM 5-FdUR): 0.4% | percent survival of the wild type (E. coli χ2913 cells; 150 nM 5-FdUR, separate experiments (b), (c), (e), (g)): < 0.1% and 0.1% and 0.5% and 0.95% | percent survival of the wild type (E. coli χ2913 cells; 200 nM 5-FdUR): 0% | percent survival of the wild type (E. coli χ2913 cells; 300 nM 5-FdUR): 0% | survival rate of bacteria transfected with TS expression vector (bacterial strain χ2913): no wild type TSWT survived

B3: D116A (protein)
chain: B1 chain with S51T, S52G, D116A
resistance to 5-FdUR (survival curves), in words (E. coli χ2913 cells): yield resistance

B4: D254A (protein)
chain: B1 chain with S51T, S52G, D254A
resistance to 5-FdUR (survival curves), in words (E. coli χ2913 cells): higher resistance than wild type TS

B5: T51S: human TS single mutant T51S (protein)
chain: B1 chain with S52G
Ki for 5-FdUMP, increase over wild type TS [1]: 11 fold

B6: Y258F: human TS single mutant Y258F made by site-directed mutagenesis (protein)
chain: B1 chain with S51T, S52G, Y258F
resistance to 5-FdUR (survival curves), in words (E. coli χ2913 cells): less resistant than the double mutant, but more resistant than wild type TS | Ki for 5-FdUMP, increase over wild type TS [1]: 3.1 fold

B7: M219V (protein)
chain: B1 chain with S51T, S52G, M219V
resistance to 5-FdUR (survival curves), in words (E. coli χ2913 cells): yield resistance

B8: T53S (protein)
chain: B1 chain with S51T, S52G, T53S
resistance to 5-FdUR (survival curves), in words (E. coli χ2913 cells): less resistant than the double mutant, but more resistant than wild type TS; also recorded: less resistant than Y258F

B9: D254E (protein)
chain: B1 chain with S51T, S52G, D254E
resistance to 5-FdUR (survival curves), in words (E. coli χ2913 cells): higher resistance than wild type TS | survival rate of bacteria transfected with TS expression vector (bacterial strain χ2913): 80%

B10: D254N (protein)
chain: B1 chain with S51T, S52G, D254N
resistance to 5-FdUR (survival curves), in words (E. coli χ2913 cells): higher resistance than wild type TS

B11: Mutant 302: human TS mutant, substitutions T53S, Y258F (protein, UniProt P04818 2-313, looked up, variant T53S Y258F)
Thymidylate synthase: PVAGSELPRRPLPPAAQERDAEPRPPHGELQYLGQIQHILRCGVRKDDRTGSGTLSVFGMQARYSLRDEFPLLTTKRVFWKGVLEELLWFIKGSTNAKELSSKGVKIWDANGSRDFLDSLGFSTREEGDLGPVYGFQWRHFGAEYRDMESDYSGQGVDQLQRVIDTIKTNPDDRRIIMCAWNPRDLPLMALPPCHALCQFYVVNSELSCQLYQRSGDMGLGVPFNIASYALLTYMIAHITGLKPGDFIHTLGDAHIFLNHIEPLKIQLQREPRPFPKLRILRKVEKIDDFKAEDFQIEGYNPHPTIKMEMAV
Survival Mutant/WT (fold enhancement in survival relative to wild type) (E. coli χ2913 cells; (g) wild type survival 0.95 at 150 nM 5-FdUR): 220 fold | resistance to 5-FdUR (survival curves), in words (E. coli χ2913 cells): as resistant or more resistant to elevated concentrations of 5-FdUR than any clone tested | 5-FdUR concentration at which colonies formed on minimal plates (E. coli χ2913 cells): 250 nM | Km for CH2H4-folate, fold higher than wild type TS [2]: approximately 10 fold | Ki for 5-FdUMP, increase over wild type TS [1]: 6 fold
